Source: article PMC9170038, “Crowdsourced RNA design discovers diverse, reversible, efficient, self-contained molecular switches”

B1: Eterna 6453430 (Inverted Small Loop Exclusion NG 3) (ssRNA)
RNA: AGGUAAGACUUAAUUGUGCUGGUGAGAAGGCAAAUGGUUGUGAUUAACAUGAGGAUCACCCAUGUUGAGGAUAUCAUCGGUAUC
B2: Eterna 6102128 (Same State NG 3) (ssRNA)
RNA: AAAACAUGAGGAUCACCCAUGUAAAUAUCGGUUAAUUGUUGUGAGGAUAUACUAAAUUUUAAGAAGUAGAAGGCACUGGGUACA
B3: Eterna 7722469 (Exclusion - FMN A) (ssRNA)
RNA: AUUUAGACGAGUGAUGUUCGUGUUAUUACAGAGGAUAUGCGUAAUUGCAGAAGGCUGUAUUUAUAUAUGUUAUGUAGUUUUAAAA
B4: Eterna 6451279 (Small Loop Same State NG 3) (ssRNA)
RNA: ACAUGAGGAUCACCCAUGUAAAGCGAGGAUAUUUCACUGCACAUGAGGUUCGCCCAUGUUCUGCGGAAGAAGGUGCAAAUAAUU
B5: Eterna 7739921 (Exclusion - Arginine B) (ssRNA)
RNA: UGAUAGGACAGAAGGAGCGGCAGUGAUGUUGCCAAAAGGGUAAGGUGUCAAAAGACACCCUGCCAGGUAGGUCGCUGUCCUAUCU
B6: Eterna 7682723 (Same State - Arginine A) (ssRNA)
RNA: AAAUUCUUUUUUUUAUUUAACUUUUCAGAAGGAGCGUGGUAGUUCACAGGUAGGUCGCUGAAUUUUGGACUAGUGAUGUUAGUUA
B7: Eterna 7687729 (Same State - FMN B) (ssRNA)
RNA: AUUUUUAACUGAGGAUAUCGAAUUUAUGUAGUGAUGUUACUUUAAAUUAAAAUUUUAAUUUCUUAACGAGAAGGCAGAAUAAUUA
B8: Eterna 7754813 (Same State - Tryptophan B) (ssRNA)
RNA: UAGUAGCUCUCGGCCGCCACUCCUCAGUGAUGUUGAGAUAUUAAGAGCCAAUUGGCUCAUAUAAAGAGGACCGGGAGAGCUACAU
B9: Eterna 5942428 (Same State NG 3) (ssRNA)
RNA: GUGGUCAGACAUGAGGAUCACCCAUGUGGAAUAAAUAACACACAGGAUAUCAAAUAUAAAAUAUAUGAGAAGGGUGGAUUGGUG
B10: Eterna 7672999 (Same State - Tryptophan B) (ssRNA)
RNA: UGGUACAUGGCGGCCGCCACUUCACGUAAAAUAAAAACUUGAGGAUCACCCAAGUAAUAAGUUGGGAGGACCGGGUCAUGUACCU
B11: Eterna 12520 (Exclusion 2) (ssRNA)
RNA: AAACAGGGAGGAUAUACAUAGAUCCUCUAACCUAAUUGGUCACAUGAGGAUCACCCAUGUAGAAGGCCCUUAGG
B12: Eterna 1541 (Same State - FMN A) (ssRNA)
RNA: AAGUGGGAACGGCCCAAUAAAGUGUUUGUCAAGGAUAUUAUUCACAUAAGAAGGUGACAGACCACCUCCGGAGUGAUGUUUUGGA
B13: Eterna 6108976 (Same State NG 2) (ssRNA)
RNA: GUAGCAUACCGAGGAUAUUCAUAUAAUAAAUAAACAUGAGGACCACCCAUGUGGCGAAAGCCUUGGGAGAAGGCGGAAUGCUAC
B14: Eterna 6398784 (Exclusion NG 1) (ssRNA)
RNA: CCUGCACCUCAAGGAUAUCCAGUCGAAACGACUGGAGAAGGUGAGGAUCACCCACCUAGCCUGACGAAAGUCAGGCAUGCAGGA
B15: Eterna 7723566 (Exclusion - Tryptophan A) (ssRNA)
RNA: AUGUCGUUAUAGUGAGUGAUGUUCACUGUGCGAGGACCGGUACGGCCGCCACUCGAGAGUGGUGGACACUGAGUCACUCUGACAC
B16: Eterna 6148811 (Same State NG 2) (ssRNA)
RNA: UGAAUCAAUACAGGAUAUGGUGACGCACAUGAGGAUCACCCAUGUCCGCAGCGUGCUCAGCACGCCCAGAAGGGUAUUGAUCCG
B17: Eterna 6393566 (Inverted Small Loop Exclusion NG 3) (ssRNA)
RNA: AGCACGAAAGUGCAACGAUGUACGAGAAGGACAUGAGGAUCACCCAUGUUGCUGUAACUGCUUAUGUAGGAUAUCGUACAUCGA
B18: Eterna 7683541 (Same State - FMN B) (ssRNA)
RNA: UAUUAAUUGUCAGGAUAUCGUAAACGAGUGAUGUUCGUAUAUCGACGAUAGUCGAUUCUAUCUAAACGAGAAGGGACAUUAUUUA
B19: Eterna 7684757 (Exclusion - Tryptophan B) (ssRNA)
RNA: AAUAAAAUCACGGCCGCCACUGAUUACCAUAUUAGGAGUGAUGUUCCUAUGACUAUAUAAUUUAACAGGACCGGGUGAAUAUUUA
B20: Eterna 12408 (Exclusion 4) (ssRNA)
RNA: CAUUUGUGAGGAUAUCAGGUGUGCUAGCGUACUGGUACAUCUGAGAAGGCACAUGAGGAUCACCCAUGUUUCUU
B21: Eterna 7734297 (Exclusion - Theophylline B) (ssRNA)
RNA: GGCCGAUGGUGCGAUACCAGCUUGAGUGUACUGGCCAGGUACAUGAGGAUCACCCAUGUAAGCCCUUGGCAGCGCGUCAGAGGCC
B22: Eterna 15907 (Sensor v3, turn-off variant 2) (ssRNA)
RNA: AGUAACCGUCACGAAAGUGAUGGUUACGCAAGUAAAUGUACAUGAGGAUCACCCAUGUCCUCAUUUGCUCGUCUUAU
B23: Eterna 12456 (Exclusion 4) (ssRNA)
RNA: GUAAAGUGAGGAUAUGGUAAAUUAAUUAUUAAUUAAUUAAUCCAGAAGGCACAUGAGGAUCACCCAUGUAAUUG
B24: Eterna 7682758 (Exclusion - Arginine A) (ssRNA)
RNA: AAUUUACAUUAAUUAUUUAAAGGUUCAGAAGGAGCGUGAAUUAACACAGGUAGGUCGCUGAGCGAGUGAUGUUCGCUAUAUACUA
B25: Eterna 7643338 (Exclusion - Arginine B) (ssRNA)
RNA: UUAUAUUAUCGAAGGAGCGUCACAUGAGGAUCACCCAUGUACAUGAGGAUCACCCAUGUGUGGCAGGUAGGUCGCGAUAUAUAAC
B26: Eterna 7682834 (Same State - Tryptophan A) (ssRNA)
RNA: UGUCAUGGAAACAUGAACGUUGAUGUUCGACGAGGACCGGUACGGCCGCCACUCGAGUAAUAGUCAGUGAUGUUGACUUGUUUAA
B27: Eterna 1268 (Exclusion - Tryptophan B) (ssRNA)
RNA: AAGCCAUACUCGGCCGCCACUUACUUCGUUGCAGUGAUGUUGCACACGAAUCCGUCAUAGCAAAUAAGGACCGGGAGAUAUACCG
B28: Eterna 7709711 (Same State - Tryptophan B) (ssRNA)
RNA: UAUAUAGUGACGGCCGCCACUAUUGUGAUGUAGUUGUUAGAGUGAUGUUUUGUUGUUUGAUUUUGUAGGACCGGGUUAUAUGUUA
B29: Eterna 7685224 (Exclusion - Theophylline B) (ssRNA)
RNA: AAUUUAUUAACUGAUACCAGACUUAAUUAAUUGUAAAUUACUAGUGAUGUUAGUGAUUCUGUCCCUUGGCAGCAGUAUUUAUUAA
B30: Eterna 6423537 (Small Loop Exclusion NG 1) (ssRNA)
RNA: GAGUAGAUCCGAGGAUAUACAAUCCGGAAACGGUACAUGAGGAUCACCCAUGUAGAAGGCGGAUCUACAGGUACUAAAGUACCU
B31: Eterna 14907 (Exclusion 2) (ssRNA)
RNA: GUGUAGUUAGGAUAUGCUGGAAUCUAGCGAAGCUAGGUUCCACAUGAGGAUCACCCAUGUAGAAGGGACUACAC
B32: Eterna 7670643 (Exclusion - Theophylline B) (ssRNA)
RNA: UGACAUUGCUCAGAUACCAGACGUGAGCAUCAGCCAUGUGCCAACAAGUACAAAAUAAAUGUCCCUUGGCAGCUGAGCAAUGUCU
B33: Eterna 6147986 (Exclusion NG 1) (ssRNA)
RNA: GCAAUGUGAUAAGGAUAUCCAAUGGCAUCCCUAGGAGAAGGUAUCACAUGAGGAUCACCCAUGUGAAGGACGGGUUAUCGCAAA
B34: Eterna 7687231 (Exclusion - Arginine A) (ssRNA)
RNA: AAUGUACAAGUGAUGUUUGUACUUUCCGAAGGAGCGUCUAAUAAGACAGGUAGGUCGCGGAUUCUCUAAAUUAUCAGGUCAUUAA
B35: Eterna 7685253 (Same State - Tryptophan B) (ssRNA)
RNA: AGACGCCAGUCGGCCGCCACUCACAGCAGUGAUGUUGCUGAAAAUCUAGAAGAGUGAUGUUCUUAGAGGACCGGGACUCCAGUCG
B36: Eterna 7712196 (Same State - FMN B) (ssRNA)
RNA: AGAGUUAUGCGAGGAUAUGCAGUUAGUACUCAAAGAGUACUAACGCAGAGUGAUGUUCUGUGAAACGCAGAAGGUGCAUAACUCA
B37: Eterna 7734632 (Exclusion - FMN B) (ssRNA)
RNA: CAUACGCAUGGAGGAUAUGAGAUUUUUCAUAUUAUUUUUUAUUCUCAGUGAUGUUGGGAUUUAUAAUCAGAAGGCCAUGUGUAUG
B38: Eterna 7714851 (Same State - Theophylline B) (ssRNA)
RNA: AGAACUGUCUGAGAUACCAGCCAGGAAGUGAUGUUUCCAGCUCCACGAAAGUGGAGCCAUGGCCCUUGGCAGCUCAGACAGUUCA
B39: Eterna 12517 (Exclusion 2) (ssRNA)
RNA: AAUGGCUGAGGAUAUACACUCACGUCUAAAAGGUUCAAAUGACAUGAGGAUCACCCAUGUAGAAGGCAGCCCGA
B40: Eterna 7681870 (Exclusion - Theophylline B) (ssRNA)
RNA: CCUAUCUCAUACGAUACCAGUCAACGAGUGAUGUUCGAAUAAAUAAAUUUGCCAAAUAAUGACCCUUGGCAGCGUAUGGGAUAGG

Molecular target: MS2 coat protein, dlFG mutant (Escherichia phage MS2, UniProt P03612, del68-81insG)
Assay: 4 mM Mg2+; no ligand; RNA-MaP array; 100 mM Tris-HCl pH 7.5, 80 mM KCl, 4 mM MgCl2, 0.1 mg/mL BSA, 1 mM DTT, 0.01 mg/mL yeast tRNA, 0.01% Tween-20; protein 1.5 nM to 3 uM; 37 C (Table S3)
Settings: chain copies: 2; label: tethered by stalled RNA polymerase

Binder	Kd
B1	500 nM
B2	24.4 nM
B3	> 3000 nM
B4	82.6 nM
B5	> 3000 nM
B6	> 3000 nM
B7	> 3000 nM
B8	> 3000 nM
B9	387 nM
B10	19 nM
B11	11.8 nM
B12	> 3000 nM
UUUUCAGAACUUAUUU (ssRNA) [Eterna 3 (ShortRNAControl)]	> 3000 nM
B13	1050 nM
B14	14.4 nM
B15	> 3000 nM
B16	816 nM
B17	5.14 nM
B18	> 3000 nM
B19	> 3000 nM
B20	15.8 nM

Binder	Kd
B21	10.6 nM
B22	204 nM
B23	24.8 nM
B24	> 3000 nM
B25	226 nM
B26	> 3000 nM
B27	> 3000 nM
B28	> 3000 nM
B29	> 3000 nM
B30	5.63 nM
B31	253 nM
AAAGCAUGACGCGCUUUCAAGCGUGGCGAGUAUAAA (ssRNA) [Eterna 2 (No-binding control)]	> 3000 nM
B32	16.6 nM
B33	54.1 nM
B34	> 3000 nM
B35	> 3000 nM
B36	> 3000 nM
B37	> 3000 nM
B38	> 3000 nM
B39	103 nM
B40	> 3000 nM
